assay: soluble on expression in E. coli; label from the status in PepcDB or PDB records

Sequence | soluble on expression in E. coli
MPEFRVWAPKPALVRLDVNGAVHAMTRSADGWWHTTVAAPADARYGYLLDDDPTVLPDPRSARQPDGVHARSQRWEPPGQFGAARTDTGWPGRSVEGAVIYELHIGTFTTAGTFDAAIEKLDYLVDLGIDFVELMPVNSFAGTRGWGYDGVLWYSVHEPYGGPDGLVRFIDACHARRLGVLIDAVFNHLGPSGNYLPRFGPYLSSASNPWGDGINIAGADSDEVRHYIIDCALRWMRDFHADGLRLDAVHALVDTTAVHVLEELANATRWLSGQLGRPLSLIAETDRNDPRLITRPSHGGYGITAQWNDDIHHAIHTAVSGERQGYYADFGSLATLAYTLRNGYFHAGTYSSFRRRRHGRALDTSAIPATRLLAYTCTHDQVGNRALGDRPSQYLTGGQLAIKAALTLGSPYTAMLFMGEEWGASSPFQFFCSHPEPELAHSTVAGRKEEFAEHGWAADDIPDPQDPQTFQRCKLNWAEAGSGEHARLHRFYRDLIALRHNEADLADPWLDHLMVDYDEQQRWVVMRRGQLMIACNLGAEPTCVPVSGELVLAWESPIIGDNSTELAAYSLAILRAAEPA | not soluble
MGSDKIHHHHHHMRYSICYTPSARDPLSLAAASWLGRNVYSDEPVEHPGLAGLGLHEIAFHTALPRRNGFHGCLKAPFALHPEVSEAQLLRELMHFAGIVEPFALPGLEVAKLGDFCGLTLTHPSNQLDRVAALVVQNFDRFRAPLSDAEIERMAPERLSAPQFANLYRWGDPHVLDEYRFYMPLTGPLPLSHRDRLHQAATHYFAPLLQNPVVFANLALFIEREPGAPLVVHSLHPMGRVSARKIA | not soluble
MKLIILDRDGVVNQDSDAFVKSPDEWIALPGSLQAIARLTQADWTVVLATNQSGLARGLFDTATLNAIHDKMHRALAQMGGVVDAIFMCPHGPDDGCACRKPLPGMYRDIARRYDVDLAGVPAVGDSLRDLQAAAQAGCAPWLVQTGNGRKTLAQGGLPEGTRVCEDLAAVAEQLLQEA | soluble
MTIKLINIGFGNIISANRMISIVSPESAPIKRMIQDARDRGMLIDATYGRRTRAVVVMDSDHIILSAVQPETVAHRLSVKEEIMDEGQG | not soluble
MPSIDIDEDTSVETTTMTETPTLDLNAKVEIINFINTFDVKGNCYLYHEGEEKLVSTLLRPDDRKRISLMKELEEARTIRQLHKTRLFKDHPFLKKQKRIILLPYSSISKSHMQTSHYSEREINRTKIINTFWKSKLELHYDAAEASILVCSFLAQNIDRNTHGLGISQSKIAIVLGMSLRRVSDTLNRLEQLGYVRRYTEKAKRGKLSLGTFIQVTENFSSQFLPPKKIVGESEEKQKQGSEHQPQDPPEKHYFQFLQSLNDLRLELKNFIVNSEEPIPPVVLQQIFKVL | not soluble
MSQYERFDSVLLSMAQQLSGGVPEMLDVLFEFLSRKTDFYSGAGVDQARTLLLEKFDKHGGKAMKEAEEAKKRKEEQERKLAERRAAQKAKEEEEFRNAKVVEVTDEEAAAFEKEQAKNSVENLEKFVDNEGETSKDAEVEDEDSKLMKPNSGNGADLAKYQWTQTLQELEVKIPIAAGFAIKSRDVVVKIEKTSVSVGLKNQAPIVDGKLPHAIKVENCNWVIENGKAIVLTLEKINDMEWWNRFLDSDPPINTKEVKPENSKLSDLDGETRAMVEKMMYDQRQKEMGLPTSDEKKKHDMLQQFMKQHPEMDFSNAKIG | soluble
MSLENAGSRPFLADFNGFSYLELKGLHTFERDLGEKMALEMVFLARGPSGLLLYNGQKTDGKGDFVSLALHNRHLEFRYDLGKGAAIIRSKEPIALGTWVRVFLERNGRKGALQVGDGPRVLGESPVPHTMLNLKEPLYVGGAPDFSKLARGAAVASGFDGAIQLVSLRGHQLLTQEHVLRAVDVAPFAGEGHHHHHH | soluble
METFQKIKELVVVPERQSVILSVKQDLVNPLQDIAQQMAQYVTREYPLTLIDGVKLTPALEEQAFATYQTVQNLLTLKASVEDIAEALDVLEGGLTMQKVSNAEARAKAYITALNGISLWALLQAVKNLVRGEAKGMSTTFVPSCADLAQYCRDLENRLSGTAEKVFIAVENSRNLALGGKRISFMRIGKPCEELHGNLSSKAA | not soluble

Source: the DeepSol protein solubility set
